What was measured:
[1] = target: T1, GRK2 (Bos taurus, UniProt P21146); test: phosphorylation of p38 mutants and truncated proteins by GRK2 in vitro; format: biochemical; details: GST fusion proteins, 30 minutes at 30° C.
T1 construct: made in house; host or cells: Sf9 cells (baculovirus)
T1 sequence (P21146 1-689): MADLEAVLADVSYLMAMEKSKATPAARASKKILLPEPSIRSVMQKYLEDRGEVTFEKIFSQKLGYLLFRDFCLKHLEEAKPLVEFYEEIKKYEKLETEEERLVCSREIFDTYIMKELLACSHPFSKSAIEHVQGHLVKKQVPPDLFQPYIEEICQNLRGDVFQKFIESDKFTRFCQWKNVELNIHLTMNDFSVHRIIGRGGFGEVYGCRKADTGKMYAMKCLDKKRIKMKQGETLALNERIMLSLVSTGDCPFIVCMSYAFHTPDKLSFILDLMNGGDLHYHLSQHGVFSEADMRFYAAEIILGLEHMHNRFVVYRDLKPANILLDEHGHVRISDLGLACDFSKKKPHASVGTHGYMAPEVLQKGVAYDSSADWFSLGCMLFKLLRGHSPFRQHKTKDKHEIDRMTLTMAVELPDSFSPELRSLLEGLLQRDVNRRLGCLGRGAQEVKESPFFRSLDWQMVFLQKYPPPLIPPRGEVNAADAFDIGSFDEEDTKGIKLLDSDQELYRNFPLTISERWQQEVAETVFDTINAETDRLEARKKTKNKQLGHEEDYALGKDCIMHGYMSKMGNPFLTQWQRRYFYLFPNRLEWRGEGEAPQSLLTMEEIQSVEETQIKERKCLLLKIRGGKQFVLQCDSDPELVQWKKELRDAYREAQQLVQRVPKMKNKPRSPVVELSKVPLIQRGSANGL
Procedure: FIG. 6A: Proteins fused to GST (black rectangle in the protein schemes) were purified from bacteria transformed with the plasmids pGEX2T-p38α, pGEX4T-Mxi2 and pGEX4T-Mxi2Δ17: p38α, Mxi2 and Mxi2Δ17. The […] isoforms used as C-terminal truncated mutants for trying to limit the GRK2 phosphorylation site. […] Heparin (150 nM) was included as a specific GRK2 inhibitor. The reactions were stopped by adding SDS breaking buffer. The samples were resolved in 8% SDS-PAGE. For the purpose of assuring the inclusion of identical amounts of protein, they were first visualized in the gel by Coomassie Brilliant Blue (CBB) staining. Then the gel was dried and the radioactivity incorporated to the proteins (^32P) was detected. FIG. 6B: The truncated GST-280-360p38 protein, corresponding to the last 80 p38α amino acids, was generated by means of the Invitrogen Gateway system. Phosphorylation assays were carried out with Mxi2Δ17 as a p38 N-terminal, 280-360 p38 as C-terminal and with whole p38α in the same conditions as described in section A. The phosphorylation was detected by autoradiography (^32P) and controls of the amount of protein used in the assays were carried out concomitantly by Western blot with the anti-GST antibody. The presence of the GST-280-360p38 protein, which is not phosphorylated, is clearly observed. STD, mobility of standard molecular weight proteins.
FIG. 9A: p38T123A and p38T123D proteins, fused to GST, were made by directed mutagenesis in the prokaryotic expression plasmids pGEX2T. The ability of the recombinant GST-p38T123A and GST-p38T123D proteins to be GRK2 substrates in comparison to the wild GST-p38WT protein and at the final concentrations indicated in the Figure was assayed. The upper panels represent the obtained phosphorylation (32 P) and the lower panels show, by anti-p38N WB, the amount of recombinant protein used in the assays. […]
Heparin (150 nM) was included as a specific GRK2 inhibitor. […] Subsequently, the gel was dried and the radioactivity incorporated to the proteins (^32P) was detected. […]

[2] = test system: MKK6CAM; test: p38 phosphorylation by MKK6CAM in vitro; format: biochemical; details: 150 nM fusion protein, 40 ng MKK6CAM
Procedure: The reactions were carried out at 30° C. for 30 minutes and the proteins were separated in 8% SDS-PAGE gels. The amount of p38 in each point was visualized by Coomassie Blue staining. Then the radioactivity in each p38 isoform was determined. […] FIG. 11B: In these same assays, the ability of MKK6CAM-activated GST-p38WT, GST-p38T123A and GST-p38T123D to phosphorylate 2 μg of GST-ATF2 is evaluated. The representative autoradiography (^32P) of the total GST-ATF2 control (Coomassie Blue) is attached.
As in the previous cases, the reactions were left to take place at 30° C. for 30 minutes and the proteins were resolved in 8% SDS-PAGE gels. With the purpose of assuring the inclusion of identical amounts of protein, they were visualized in the gel by Coomassie Blue staining. Subsequently, the radioactivity incorporated in each p38 isoform was determined.

[3] = target: T2, MAPKAPK2 (MK2) (Homo sapiens, UniProt P49137); test: GST pull-down of His-tagged MAPKAPK2; format: binding; details: GST-p38 300 nM, His-MK2 20 nM; vs T123A mutant or wild type
T2 construct: made in house
Procedure: Purified GST-p38 and its T123 mutants (300 nM) were incubated in the presence of purified MKK6 (3 nM) or His-tagged MAPKAPK2 ([…], 20 nM) in a pull down assay with GST as a negative control. Sedimented proteins were developed by Western Blot using anti-MKK6, anti-Histidine (for His-MK2) or anti-GST (for total amounts of GST-p38s) antibodies. In all panels, results are representative of three independent experiments performed in duplicate.
The proteins GST, GST-p38 wt, GST-p38T123A and GST-p38T123D were bacterially expressed and isolated using Gluthatione-Sepharose 4B (GE-Amersham) following standard procedures (Murga, C. et al. High affinity binding of beta-adrenergic receptor kinase to microsomal membranes. Modulation of the activity of bound kinase by heterotrimeric G protein activation. J Biol Chem 271, 985-994 (1996)). His-MAPKAPK2 was purified using Probond resin (Invitrogen) following manufacturer's indications. MKK6CAM was purchased from Upstate Biotech. The amount of proteins detailed in the legend to each figure were incubated in binding buffer (25 mM Tris pH 7.5, 0.25 M NaCl, 10 mM MgCl2, 5 mM NaF and 0.5% BSA) for 30 min at 30° C. with constant shaking. ATP (50 μM) was added for MAPKAPK2 pull downs. Precipitates were washed three times (10 ml) with the same buffer containing 0.5% Triton X100. Precipitated complexes were resolved by SDS-PAGE and developed by Western Blot.

T2 sequence (P49137 with tags, fused parts or gaps): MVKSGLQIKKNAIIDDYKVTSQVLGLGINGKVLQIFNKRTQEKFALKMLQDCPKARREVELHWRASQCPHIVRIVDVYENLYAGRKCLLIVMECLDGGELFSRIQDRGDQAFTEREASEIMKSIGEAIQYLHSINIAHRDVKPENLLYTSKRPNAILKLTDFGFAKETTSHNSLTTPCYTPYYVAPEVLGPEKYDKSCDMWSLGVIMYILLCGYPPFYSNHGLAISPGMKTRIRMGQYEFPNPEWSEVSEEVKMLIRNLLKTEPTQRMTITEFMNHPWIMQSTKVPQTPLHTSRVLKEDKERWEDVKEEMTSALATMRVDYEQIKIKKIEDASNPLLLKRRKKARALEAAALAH

ability to associate to MK2 [3]: severely impaired
B1: p38T123D: p38α mutant; aspartic acid mimics the constitutively phosphorylated form of threonine 123 (protein, UniProt P47811 2-360, looked up, variant T123D)
Mitogen-activated protein …: SQERPTFYRQELNKTIWEVPERYQNLSPVGSGAYGSVCAAFDTKTGHRVAVKKLSRPFQSIIHAKRTYRELRLLKHMKHENVIGLLDVFTPARSLEEFNDVYLVTHLMGADLNNIVKCQKLDDDHVQFLIYQILRGLKYIHSADIIHRDLKPSNLAVNEDCELKILDFGLARHTDDEMTGYVATRWYRAPEIMLNWMHYNQTVDIWSVGCIMAELLTGRTLFPGTDHIDQLKLILRLVGTPGAELLKKISSESARNYIQSLAQMPKMNFANVFIGANPLAVDLLEKMLVLDSDKRITAAQALAHAYFAQYHDPDDEPVADPYDQSFESRDLLIDEWKSLTYDEVISFVPPPLDQEEMES
modifications: GST or Flag tag in some forms
ability to be a GRK2 substrate (32P incorporation) [1]: none of the two mutant is a GRK2 substrate | phosphorylation by MKK6CAM (32P) [2]: much worse MKK6CAM substrate than the other two p38

From US20080233097A1, “Phosphorylation Site Of Mitogen-Activated Protein Kinases, Modified Proteins And Applications” (UNIVERSIDAD AUTONOMA DE MADRID, priority 2005, published 2008)
